How the values were obtained:
[1] = tested on: rat fibroblast; assay: Supplemental rat fibroblast viability study after printing in the bioink; assay type: cell-based; settings: rat fibroblasts; compared to I2959 counterparts
Description: It is anticipated that crosslinking time can be reduced for the LAP group in the future to further increase viability.^40 Therefore, LAP became the crosslinker used for the later experiments for the advantages of LAP over I2959, as previously reported.^31,41

[2] = tested on: Schwann cells (SCs); assay: SC migration in 3D bioprinted hydrogels; assay type: cell-based, Rat; settings: 1 μg/mL growth factor in bioprinted MAHA 10/Col-I hydrogel; 7 days; n=5
Protocol: SC Migration in 3D Bioprinted Hydrogels. The experimental groups included 1 μg/mL of NGF or GDNF encapsulated within 1 mL of bioink, whereas the control group contained no growth factor (no GF) (n=5). The bioinks were used to print a cylinder of 8 mm diameter and 2 mm height. The control group was printed without any growth factor. Next, SCs were seeded on top of the hydrogels at a cell density of 10^5 cells/cm^2 and cultured for 7 days with the media changed every 2 days. Hydrogel samples, stained using a Live/Dead assay, were then placed cell-side-down in a 35-mm diameter glass-bottom dish and imaged using a Zeiss LSM 880 laser-scanning confocal microscope. Z-stacked image of 500 μm deep at 10× magnification were analyzed to assess SC migration into the hydrogel using a Zeiss ZEN 2 software by creating a heat map based on relative depth within the hydrogel to measure the farthest migration points (n=5) in each sample. By taking the average of cell migration depth, this assessment examined the total migration into the biomaterials in 3D culture.

[3] = tested on: DRG neurites; assay: DRG neurite outgrowth in competitive in vitro test beds, β-III tubulin neurite length; assay type: cell-based; settings: 7 days, n=5; for ratio of neurite length, growth factor side to control side: growth factor/control test bed, 1 μg/mL
Protocol: (§1) DRG Neurite Outgrowth in Competitive in vitro Test Beds. A 6-layer rectangular model with two arms or “chambers” were printed on each end (12 mm long, 5 mm wide, and 1.7 mm height). A base layer (0.7 mm height) was printed containing only the hydrogel. On top of the base on either side two “chambers” were printed; each chamber contained a concentration of 1 μg/mL of either NGF, GDNF, or no GF as control. To establish a competitive cue assay, three test bed groups were printed: NGF versus control (NGF/control), GDNF/control, or NGF/GDNF. DRGs were trimmed on the same day as testbed fabrication. Each DRG was semi-encapsulated at the center of the hydrogel testbeds by first placing the DRG directly in the middle of the two-chambered testbed and then securing in place with pH-neutralized Col-d solution at a concentration of 3 mg/mL. Col-d allowed for securing the DRG quickly without the need for direct UV exposure of the DRG. The test beds were incubated for 30 minutes to allow for collagen gelation and then media was added. Media was changed three hours following the addition of DRGs to account for bulk growth factor release into the media. DRGs were cultured for 7 days with media being changed every 2 days.
Following 7 days of culture, DRGs were fixed in 2% paraformaldehyde for 1 hour followed by three PBS rinses of 45 minutes each before blocking in 0.3% Triton X-100 and 3% goat serum in 1×PBS for 1 hour. The primary antibodies used were β-III tubulin to identify microtubules (i.e., indicating neurite extension) and GAP43, a “plasticity” protein that is expressed at high levels in neuronal growth cones (a secondary indicator of new neurite formation). Both antibodies were diluted at 1:500 dilutions and incubated on samples at 4° C. for 48 hours. […] ImageJ and the neurite tracer plugin were used to quantify neurite lengths extending from the DRG body. […] Positive area was measured as directional outgrowth from each DRG in the left and right directions toward the growth factor chambers relative to the center of the DRG body. […]

[4] = tested on: DRG neural growth cone (GAP43); assay: DRG neurite outgrowth in competitive in vitro test beds, GAP43 signal; assay type: cell-based; settings: normalized to total positive area, 7 days, n=3
Protocol: as §1
Following 7 days of culture, DRGs were fixed in 2% paraformaldehyde for 1 hour followed by three PBS rinses of 45 minutes each before blocking in 0.3% Triton X-100 and 3% goat serum in 1×PBS for 1 hour. The primary antibodies used were β-III tubulin to identify microtubules (i.e., indicating neurite extension) and GAP43, a “plasticity” protein that is expressed at high levels in neuronal growth cones (a secondary indicator of new neurite formation). Both antibodies were diluted at 1:500 dilutions and incubated on samples at 4° C. for 48 hours. DRGs were then washed with 0.05% Tween-20 in 1×PBS three times for 6 hours each. Secondary antibodies, AlexaFluor 488 α-rabbit and AlexaFluor 568 α-mouse at 1:500 dilutions, were added for 16 hours in blocking buffer. DRGs were rinsed with 0.05% Tween-20 in 1×PBS three times for 6 hours each. Cell nuclei were stained with DAPI in deionized water for 5 minutes at room temperature. For β-III tubulin marker, top-view images of DRGs were acquired with a Zeiss Axio Imager 2 microscope. ImageJ and the neurite tracer plugin were used to quantify neurite lengths extending from the DRG body. From a ranked list of directional neurite lengths, the five longest neurite extensions were averaged for each chamber side. […] For the GAP43 marker, samples were imaged from the top with a Zeiss LMA 880 confocal microscope. ImageJ was used to threshold positive signal for all images. Positive area was measured as directional outgrowth from each DRG in the left and right directions toward the growth factor chambers relative to the center of the DRG body. […]

| Molecule | viability of bioprinted cells by photoinitiator [1] | SCs migrated distance into hydrogels [2] [μm] | ratio of neurite length, growth factor side to control side [3] | fraction positive GAP43 signal ([4]; NGF/GDNF test bed) | fraction positive GAP43 signal ([4]; growth factor/control test bed) | ratio of neurite length, NGF to GDNF ([3]; NGF/GDNF test bed, 1 μg/mL each) |
| --- | --- | --- | --- | --- | --- | --- |
| Cc1cc(C)c(C(=O)P(=O)([O-])c2ccccc2)c(C)c1.[Li+] [LAP, lithium phenyl-2,4,6-trimethylbenzoyl-phosphinate] | highest viability | – | – | – | – | – |
| glial cell line-derived neurotrophic factor (protein, UniProt P39905 78-211, looked up, glial cell line-derived neurotrophic factor (R&D Systems 512-GF-010/CF)) Glial cell line-derived …: SPDKQMAVLPRRERNRQAAAANPENSRGKGRRGQRGKNRGCVLTAIHLNVTDLGLGYETKEELIFRYCSGSCDAAETTYDKILKNLSRNRRLVSDKVGQACCRPIAFDDDLSFLDDNLVYHILRKHSAKRCGCI | – | 403±79.6 | 1.41±0.06 | 0.42 | 0.66 | – |
| Rat beta-nerve growth factor (protein, UniProt P25427 122-241, looked up, Rat beta-nerve growth factor (R&D Systems 556-NG-100)) Beta-nerve growth factor: SSTHPVFHMGEFSVCDSVSVWVGDKTTATDIKGKEVTVLGEVNINNSVFKQYFFETKCRAPNPVESGCRGIDSKHWNSYCTTTHTFVKALTTDDKQAAWRFIRIDTACVCVLSRKAARRG | – | 301±89.4 | 1.42±0.13 | 0.58 | 0.63 | 1.09±0.19 |

— patent publication US12195761B2, “Bioprinted, 3D scaffolds for cellular test beds and methods of use thereof” (University of Florida Research Foundation, Inc., priority 2020, dated 2025)
